From the supplement of paper PMC9170038

Tested on: K4 kissing-loop RNA reporter
Assay: apparent KD of K4 kissing-loop reporter; higher = weaker reporter binding
Settings: Eterna round: R107
Description: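 RNA-MaP round R107: designed RNA switches with theophylline, tryptophan, arginine or FMN aptamers are transcribed on-chip within common flanks. They are titrated with a labelled K4 kissing-loop RNA reporter in RNA-MaP buffer (100 mM Tris pH 7.5, 80 mM KCl, 4 mM MgCl2), without ligand or with the indicated ligand. Median apparent KD per design.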

[1] = input ligand: theophylline 20 uM
[2] = input ligand: tryptophan 2.4 mM
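Further: bound reporter read as fluorescence of individual clusters on recovered sequencing chips by microscopy, with normalized cluster intensities fitted with a binding model.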

Sequence: UAAGAGGACCACUGCGAGAGUCCUCGAAUACGAGGACCGGUACGGCCGCCACUCGAUAACUUGCAGUGAUGUUGCAAGUAAGAAU [BrourdMod 3 - Jieux - Same State Tryptophan A]
- apparent KD of K4 kissing-loop reporter (input ligand: FMN 200 uM): 0.0989 µM
- apparent KD of K4 kissing-loop reporter (input ligand: arginine 13.2 mM): 0.0954 µM
- apparent KD of K4 kissing-loop reporter (input ligand: none): 0.0941 µM
- apparent KD of K4 kissing-loop reporter [1]: 0.102 µM
- apparent KD of K4 kissing-loop reporter [2]: 0.081 µM

Sequence: UUUAUUAAGACGGCCGCCACUGAUUCAGAGUGAUGUUCUGAUAAAAUUUUAGAUAAUAAUAACAGCAGGACCGGGUCAAUUAUUA [JR_SSTryptoB_Sub014]
- apparent KD of K4 kissing-loop reporter (input ligand: FMN 200 uM): 0.211 µM
- apparent KD of K4 kissing-loop reporter (input ligand: arginine 13.2 mM): 0.211 µM
- apparent KD of K4 kissing-loop reporter (input ligand: none): 0.238 µM
- apparent KD of K4 kissing-loop reporter [1]: 0.219 µM
- apparent KD of K4 kissing-loop reporter [2]: 0.208 µM

Sequence: UGUGCCAACAGCGAUACCAGCCCGGCAGUGAUGUUGCCGGACGGAGUGAUGUUCCGGCAGGGCCCUUGGCAGCGCAGAAGCGCGA [Exclusion Theophylline B Gf 28]
- apparent KD of K4 kissing-loop reporter (input ligand: FMN 200 uM): 0.215 µM
- apparent KD of K4 kissing-loop reporter (input ligand: arginine 13.2 mM): 0.222 µM
- apparent KD of K4 kissing-loop reporter (input ligand: none): 0.261 µM
- apparent KD of K4 kissing-loop reporter [1]: 0.432 µM
- apparent KD of K4 kissing-loop reporter [2]: 0.202 µM

Sequence: UCUAUAGUUAGAGGAUAUUGAAUUAGAGUGAUGUUCUAUAGAAGACCAGUGAUGUUGGAUAGUAUACAAGAAGGCUGAUCUAUAG [Same State FMN B GF 1]
- apparent KD of K4 kissing-loop reporter (input ligand: FMN 200 uM): 0.208 µM
- apparent KD of K4 kissing-loop reporter (input ligand: arginine 13.2 mM): 0.665 µM
- apparent KD of K4 kissing-loop reporter (input ligand: none): 0.451 µM
- apparent KD of K4 kissing-loop reporter [1]: 0.883 µM
- apparent KD of K4 kissing-loop reporter [2]: 0.499 µM

Sequence: GAUUGUGAUGGAAACAUCGCAAUCUCUGAAGGAGCGCGUGAAAACGCAGGUAGGUCGCAGGACGACAAAGACAGUGAUGUUGUCG [Ex Arginine A K4 2]
- apparent KD of K4 kissing-loop reporter (input ligand: FMN 200 uM): 0.446 µM
- apparent KD of K4 kissing-loop reporter (input ligand: arginine 13.2 mM): 0.424 µM
- apparent KD of K4 kissing-loop reporter (input ligand: none): 0.554 µM
- apparent KD of K4 kissing-loop reporter [1]: 0.504 µM
- apparent KD of K4 kissing-loop reporter [2]: 0.416 µM

Sequence: UUUAUAUUGUCGGCCGCCACUGGAUUAAUAUUUGUAUAAUCUAGUUCAAAGUGAUGUUUUGAGUCCAGGACCGGGACAUUUGUUA [JR_ExcTryptoB_Sub004]
- apparent KD of K4 kissing-loop reporter (input ligand: FMN 200 uM): 0.67 µM
- apparent KD of K4 kissing-loop reporter (input ligand: arginine 13.2 mM): 0.515 µM
- apparent KD of K4 kissing-loop reporter (input ligand: none): 0.536 µM
- apparent KD of K4 kissing-loop reporter [1]: 0.558 µM
- apparent KD of K4 kissing-loop reporter [2]: 0.445 µM

Sequence: GCCGUACGCAUGGAUACCAGCUAGACCGAGUGAUGUUCAGGUCUGAAUGCCGGUAUCAAGAGCCCUUGGCAGCCAUGCGUACGGC
- apparent KD of K4 kissing-loop reporter (input ligand: FMN 200 uM): 0.382 µM
- apparent KD of K4 kissing-loop reporter (input ligand: arginine 13.2 mM): 0.265 µM
- apparent KD of K4 kissing-loop reporter (input ligand: none): 0.301 µM
- apparent KD of K4 kissing-loop reporter [1]: 0.329 µM
- apparent KD of K4 kissing-loop reporter [2]: 0.292 µM

Sequence: AGUGCAUGCUCGGCCGCCACUCAGAAGAAGAUAGAAGUGAUGUUUCUAAUGAUGAGAAUAAUAAAGAGGACCGGGAGAUGUGCAA [First try]
- apparent KD of K4 kissing-loop reporter (input ligand: FMN 200 uM): 0.122 µM
- apparent KD of K4 kissing-loop reporter (input ligand: arginine 13.2 mM): 0.125 µM
- apparent KD of K4 kissing-loop reporter (input ligand: none): 0.149 µM
- apparent KD of K4 kissing-loop reporter [1]: 0.164 µM
- apparent KD of K4 kissing-loop reporter [2]: 0.116 µM

Sequence: UGUCAUUGGUCGGCCGCCACUAGACGGACAUAAGUCUGUCAAUAAAGAGUGAUGUUCUUAAAUAAUAGGACCGGGACCGAUGACU [TrypBS 28 #SwitchBubble #StaticStem]
- apparent KD of K4 kissing-loop reporter (input ligand: FMN 200 uM): 0.527 µM
- apparent KD of K4 kissing-loop reporter (input ligand: arginine 13.2 mM): 0.458 µM
- apparent KD of K4 kissing-loop reporter (input ligand: none): 0.451 µM
- apparent KD of K4 kissing-loop reporter [1]: 0.503 µM
- apparent KD of K4 kissing-loop reporter [2]: 0.201 µM

Sequence: GCUAUGGUAGGAAGGAGCGCUACUUUAUUUUUACGAGUGAUGUUCGGUAGUAGAGUGUUAAAGCAGGUAGGUCGCCUACUAUAGC [Arginine B K4 18]
- apparent KD of K4 kissing-loop reporter (input ligand: FMN 200 uM): 0.217 µM
- apparent KD of K4 kissing-loop reporter (input ligand: arginine 13.2 mM): 0.132 µM
- apparent KD of K4 kissing-loop reporter (input ligand: none): 0.14 µM
- apparent KD of K4 kissing-loop reporter [1]: 0.172 µM
- apparent KD of K4 kissing-loop reporter [2]: 0.146 µM

Sequence: GCGUCCAUGUAUGAUACCAGACUUUUUUUAGUAGGUGACGAUAGUGAUGUUAUACGUCAAGUCCCUUGGCAGCAUGACCUAUUAU [theeternabot_exclusion_KL_Theo_B_23]
- apparent KD of K4 kissing-loop reporter (input ligand: FMN 200 uM): 0.423 µM
- apparent KD of K4 kissing-loop reporter (input ligand: arginine 13.2 mM): 0.461 µM
- apparent KD of K4 kissing-loop reporter (input ligand: none): 0.418 µM
- apparent KD of K4 kissing-loop reporter [1]: 0.694 µM
- apparent KD of K4 kissing-loop reporter [2]: 0.587 µM

Sequence: CCAUCGCUAUUCGAUACCAGCUACUUAGUGAUGUUAAGUUAAAAUUAAUUGUAGAUUAAAAGCCCUUGGCAGCGAAUAGUGAUGG [Theophylline B K4 20]
- apparent KD of K4 kissing-loop reporter (input ligand: FMN 200 uM): 0.159 µM
- apparent KD of K4 kissing-loop reporter (input ligand: arginine 13.2 mM): 0.141 µM
- apparent KD of K4 kissing-loop reporter (input ligand: none): 0.154 µM
- apparent KD of K4 kissing-loop reporter [1]: 0.119 µM
- apparent KD of K4 kissing-loop reporter [2]: 0.152 µM

Sequence: UCAGUUCACGGGCGCCGCAAACCGCAGGAUACCAGUCACAUCGCUGACCCUUGGCAGCCUAUGGACUAGUGAUGUUAGUCCAGGA [theeternabot_sameState_KL_Theo_A_37]
- apparent KD of K4 kissing-loop reporter (input ligand: FMN 200 uM): 0.0985 µM
- apparent KD of K4 kissing-loop reporter (input ligand: arginine 13.2 mM): 0.0952 µM
- apparent KD of K4 kissing-loop reporter (input ligand: none): 0.128 µM
- apparent KD of K4 kissing-loop reporter [1]: 0.117 µM
- apparent KD of K4 kissing-loop reporter [2]: 0.115 µM

Sequence: UUGUUUGGUUGAGAGGUUGGGCGAGAUGAUACCAGUAUAGUAGAGUACCCUUGGCAGCAUAGGAGAGAUAUAGUGAUGUUGUAUG [SSTheophA.U]
- apparent KD of K4 kissing-loop reporter (input ligand: FMN 200 uM): 0.39 µM
- apparent KD of K4 kissing-loop reporter (input ligand: arginine 13.2 mM): 0.302 µM
- apparent KD of K4 kissing-loop reporter (input ligand: none): 0.477 µM
- apparent KD of K4 kissing-loop reporter [1]: 0.482 µM
- apparent KD of K4 kissing-loop reporter [2]: 0.381 µM

Sequence: UUACCAAGUGAUGUUUGGAAAUAUCCUAGGCAGGAUAUGCGGAAACGCAGAAGGGCCACCUGAUAGUGAAGGAAACUUCGCUAUC [Ex FMN A 1]
- apparent KD of K4 kissing-loop reporter (input ligand: FMN 200 uM): 0.168 µM
- apparent KD of K4 kissing-loop reporter (input ligand: arginine 13.2 mM): 0.141 µM
- apparent KD of K4 kissing-loop reporter (input ligand: none): 0.152 µM
- apparent KD of K4 kissing-loop reporter [1]: 0.13 µM
- apparent KD of K4 kissing-loop reporter [2]: 0.151 µM

Sequence: AGUGAUAUAUGAGGAUAUGGGUUUGUUAAUGAGUUAGUUUUAGUGUUGUUUGGUUAGUGAUGUUAUUUAGAAGGCGUGAGUGAUG [vkkjkjmullin]
- apparent KD of K4 kissing-loop reporter (input ligand: FMN 200 uM): 0.103 µM
- apparent KD of K4 kissing-loop reporter (input ligand: arginine 13.2 mM): 0.0798 µM
- apparent KD of K4 kissing-loop reporter (input ligand: none): 0.0799 µM
- apparent KD of K4 kissing-loop reporter [1]: 0.14 µM
- apparent KD of K4 kissing-loop reporter [2]: 0.0728 µM

Sequence: UAAUCCUAGUGAUACUUAUCAAGUGGUGGGCGAGGACCGGUACGGCCGCCACUCGAAUAUGCAGUGAUGUUGUAAUCCGGAUAAU [Exclusion - Tryptophan A (Freestyle 8)]
- apparent KD of K4 kissing-loop reporter (input ligand: FMN 200 uM): 0.668 µM
- apparent KD of K4 kissing-loop reporter (input ligand: arginine 13.2 mM): 0.722 µM
- apparent KD of K4 kissing-loop reporter (input ligand: none): 0.997 µM
- apparent KD of K4 kissing-loop reporter [1]: 1.5 µM
- apparent KD of K4 kissing-loop reporter [2]: 0.397 µM

Sequence: AGGAGCGUGGGAUGCAAAUCGCACGCUCCUCGAGGACCGGUACGGCCGCCACUCGCUCGCGCCGAGUGAUGUUCGGCCGGCGAAC [#2 Same State - Tryptophan A Attempt #14 (HarryS)]
- apparent KD of K4 kissing-loop reporter (input ligand: FMN 200 uM): 0.221 µM
- apparent KD of K4 kissing-loop reporter (input ligand: arginine 13.2 mM): 0.232 µM
- apparent KD of K4 kissing-loop reporter (input ligand: none): 0.247 µM
- apparent KD of K4 kissing-loop reporter [1]: 0.266 µM
- apparent KD of K4 kissing-loop reporter [2]: 0.407 µM

Sequence: CCAUCGCUAUUCGAUACCAGCUACUUAGUGAUGUUAAGUUAAAAUCCACUGUAGGUGGAAAGCCCUUGGCAGCGAAUAGUGAUGG [Theophylline B K4 23]
- apparent KD of K4 kissing-loop reporter (input ligand: FMN 200 uM): 0.235 µM
- apparent KD of K4 kissing-loop reporter (input ligand: arginine 13.2 mM): 0.189 µM
- apparent KD of K4 kissing-loop reporter (input ligand: none): 0.205 µM
- apparent KD of K4 kissing-loop reporter [1]: 0.117 µM
- apparent KD of K4 kissing-loop reporter [2]: 0.203 µM

Sequence: AAUAUACAGGGAAGGAGCGUCGUCCAGUGAUGUUGGAGUUAAAUACCAGUGAUGUUGGUUAGGCAGGUAGGUCGCCCUAAAGUAU [KL-XARG-B15]
- apparent KD of K4 kissing-loop reporter (input ligand: FMN 200 uM): 0.0936 µM
- apparent KD of K4 kissing-loop reporter (input ligand: arginine 13.2 mM): 0.0683 µM
- apparent KD of K4 kissing-loop reporter (input ligand: none): 0.0867 µM
- apparent KD of K4 kissing-loop reporter [1]: 0.0851 µM
- apparent KD of K4 kissing-loop reporter [2]: 0.0739 µM

Sequence: GGGUUCUCGUCGGCCGCCACUUCAUGUAUUUAGCAGGCUUCGCUCAGACUCAGUGAUGUUGGGUAAAGGACCGGGACACAUUCAA [theeternabot_exclusion_KL_Trp_B_50]
- apparent KD of K4 kissing-loop reporter (input ligand: FMN 200 uM): 0.372 µM
- apparent KD of K4 kissing-loop reporter (input ligand: arginine 13.2 mM): 0.245 µM
- apparent KD of K4 kissing-loop reporter (input ligand: none): 0.342 µM
- apparent KD of K4 kissing-loop reporter [1]: 0.304 µM
- apparent KD of K4 kissing-loop reporter [2]: 0.31 µM
